The target of assay [1] is T1, Human membrane IL-6R on cells (human, UniProt P08887 20-468).
T1 sequence (looked up): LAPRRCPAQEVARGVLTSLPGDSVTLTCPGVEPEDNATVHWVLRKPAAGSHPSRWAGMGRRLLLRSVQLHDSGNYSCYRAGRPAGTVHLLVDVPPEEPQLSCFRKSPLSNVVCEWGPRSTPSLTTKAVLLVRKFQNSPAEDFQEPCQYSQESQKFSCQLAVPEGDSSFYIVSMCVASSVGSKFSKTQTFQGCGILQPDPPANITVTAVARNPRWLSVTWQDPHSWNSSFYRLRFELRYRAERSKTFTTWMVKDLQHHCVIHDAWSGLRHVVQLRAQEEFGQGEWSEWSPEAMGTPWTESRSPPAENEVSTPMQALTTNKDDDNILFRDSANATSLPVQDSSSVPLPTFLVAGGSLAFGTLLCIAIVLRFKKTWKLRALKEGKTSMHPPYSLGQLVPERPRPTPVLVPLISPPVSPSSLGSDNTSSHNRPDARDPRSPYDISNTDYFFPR
The experiment in a line: cell-based or functional assay.

Assay [2] addresses T1, Human membrane IL-6R on cells. The experiment in a line: cell-based or functional assay. This is another data set of the same source.
The target is the same in assay [3]. The experiment in a line: cell-based or functional assay. The source holds these as a separate data set.
The target of assay [4] is T2, Human soluble IL-6R (human, UniProt P08887 20-358).
T2 construct: Soluble recombinant form; biotinylated in some assays; also called hIL-6R; human IL-6R
T2 sequence (looked up): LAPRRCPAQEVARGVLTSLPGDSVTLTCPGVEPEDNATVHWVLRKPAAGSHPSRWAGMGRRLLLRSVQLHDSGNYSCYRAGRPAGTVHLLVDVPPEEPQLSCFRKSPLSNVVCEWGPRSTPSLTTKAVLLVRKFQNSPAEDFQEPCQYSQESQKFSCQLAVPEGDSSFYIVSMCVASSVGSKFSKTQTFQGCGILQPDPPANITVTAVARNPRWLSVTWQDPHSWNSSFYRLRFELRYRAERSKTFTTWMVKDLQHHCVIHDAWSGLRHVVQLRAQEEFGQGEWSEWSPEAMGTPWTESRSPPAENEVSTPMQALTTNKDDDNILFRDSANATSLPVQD
As to the kind of experiment: SPR Biacore 3000, IL-6R amine-coupled to CM5.
Procedure: (§1) Nanobodies were injected at 5 different concentrations between 1 and 50 nM. Flow rate was 45 μl/min in all experiments. Association and dissociation phase were 3 and 10 min, respectively. The chip was regenerated using Glycine/HCl pH 1.5.

Assay [5] has as its target T2, Human soluble IL-6R. As to the kind of experiment: Alphascreen, inhibition of bio-IL-6 binding to IL-6R.
Procedure: (§2) Finally streptavidin donor beads were added and after 1 hour incubator the plate was read on the Envision microplate reader.
The target of assay [6] is T2, Human soluble IL-6R. The experiment in a line: summary table C-13 of Nanobody characteristics, Kd on IL-6R.
Procedure: as §1
For assay [7], the target named is T2, Human soluble IL-6R. The experiment in a line: inhibition of the IL-6/IL-6R interaction, summary table C-13.
Procedure: as §2
Assay [8] has as its target T2, Human soluble IL-6R. As to the kind of experiment: competition for IL-6R, competitor reference Fab, summary table C-13.
The target of assay [9] is T2, Human soluble IL-6R. As to the kind of experiment: Alphascreen, 100 nM Nanobody, 0.4 nM bio-IL-6R; competitor: reference Fab.
The target in another assay is T3, Mouse IL-6R (mouse, UniProt P22272 20-364, limits assumed).
T3 construct: also called mouse sIL-6R
T3 sequence (looked up): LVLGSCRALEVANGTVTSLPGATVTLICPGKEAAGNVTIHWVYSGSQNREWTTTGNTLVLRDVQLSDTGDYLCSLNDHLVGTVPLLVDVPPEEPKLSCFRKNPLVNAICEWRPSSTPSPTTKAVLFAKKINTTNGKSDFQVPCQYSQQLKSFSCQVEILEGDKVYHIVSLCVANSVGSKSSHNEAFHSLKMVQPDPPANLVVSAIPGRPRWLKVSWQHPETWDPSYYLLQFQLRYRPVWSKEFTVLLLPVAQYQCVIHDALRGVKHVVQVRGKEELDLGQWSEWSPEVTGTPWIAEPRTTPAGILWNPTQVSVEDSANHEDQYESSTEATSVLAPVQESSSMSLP
The experiment in a line: ELISA: plate coated with 1 µg/ml mouse IL-6R, 500 nM Nanobody, anti-myc + anti-mouse-HRP.

Assay [10] addresses T2, Human soluble IL-6R. The experiment in a line: Biacore off-rate, periplasmic extract.

Values joined by “and” are separate entries in the source; they are usually repeats but may differ in a detail not shown here. Equal entries are not always repeated.

Procedure for Mouse IL-6R: Detection was performed with anti-myc and anti-mouse-HRP as first and second antibody respectively.

B1: IL6R08 (VHH)
VHH: EVQLVESGGGLVQPGGSLRLSCVASGFSLDYYVIGWFRQAPGKEREGVSCISSSDGSTYYADSVKGRFTISRDNAKNTVYLQMNSLKPEDTAVYYCAADLLRTPEFCVDSAPYDYWGQGTQVTVSS
notes: also called PMP34A12; not shown: C-terminal c-myc and (His)6 tags
As to B1, the “IC50 (nM), XG-1 cell proliferation” value in [1] came to 36.6 nM. Besides, the “IC50 (nM), TF1 cell proliferation” value in assay [2] worked out at 24.3 nM. In addition, in assay [3], the “IC50 (nM) XG-1” value was found to be 36.6 nM. In the assay with Human soluble IL-6R [4], this molecule gave a Kd of 10.2 nM, a koff of 0.00197 s⁻¹ and a kon of 194000 M⁻¹ s⁻¹. Besides, in the assay with Human soluble IL-6R [5], the IC50 came to 1.18 nM. Binding with Human soluble IL-6R [6] was characterised by a dissociation constant (Kd) of 10.2 nM. In the assay with Human soluble IL-6R [7], this molecule yielded an IC50 of 1.18 nM. Further, in the assay with Human soluble IL-6R [8], the “Ref Fab competition (%)” value was found to be 99%. Further, the “Residual reference-Fab binding to IL-6R (%)” value with Human soluble IL-6R [9] was 99%. Also, the binding result with Mouse IL-6R is listed as “no binding (tested: 500 nM)”.

B2: IL6R09 (VHH)
VHH: EVQLVESGGGLVQAGGSLRLSCAASGRTSSSYDMTWYRQVPGKEREFVAVISWSGGSTYYADSVKGRFTISRDNAKNTVYLQMNSLKPEDTAIYYCNAYTGGGDDYWGQGTQVTVSS
notes: also called PMP34G9; not shown: C-terminal c-myc and (His)6 tags
With B2, in [1], the “IC50 (nM) + HSA, XG-1 cell proliferation” value was 3 nM and the “IC50 (nM), XG-1 cell proliferation” value stood at 2.7 nM. Also, the “IC50 (nM), TF1 cell proliferation” value in assay [2] was 8.7 nM. Further, the “IC50 (nM) XG-1” value in [3] stood at 2.7 nM. Also, the koff with Human soluble IL-6R [10] came out at 0.00139 s⁻¹. In addition, in the assay with Human soluble IL-6R [4], the Kd is 2 nM and 1.2 nM; the koff is 0.00129 s⁻¹ and 0.0013 s⁻¹ and 0.00139 s⁻¹; the kon was 641000 M⁻¹ s⁻¹ and 1.11e+06 M⁻¹ s⁻¹. The same molecule displayed an IC50 with Human soluble IL-6R [5] of 0.238 nM. In the assay with Human soluble IL-6R [6], this molecule returned a Kd of 2 nM. Further, inhibition with Human soluble IL-6R [7] was half-maximal at 0.24 nM (IC50). Moreover, the “Ref Fab competition (%)” value with Human soluble IL-6R [8] is 62%. For the same molecule, the “Residual reference-Fab binding to IL-6R (%)” value with Human soluble IL-6R [9] came to 62%. Besides, the binding result in the assay with Mouse IL-6R is “no binding (tested: 500 nM)”.

B3: IL6R07 (VHH)
VHH: EVQLVESGGGLVQPGGSLRLSCAASGFTLDYGAIGWFRQAPGKEREGVSCISSSTGSTYYADSVKGRFTISRDNGKNTVYLQMNSLKPEDTAVYYCAADKMWSPCLVAANEEALFEYDYWGQGTQVTVSS
notes: also called PMP33A3; not shown: C-terminal c-myc and (His)6 tags
Regarding B3, the “IC50 (nM), XG-1 cell proliferation” value in [1] was found to be 50.5 nM. Moreover, the “IC50 (nM), TF1 cell proliferation” value in assay [2] is 375 nM. In addition, the “IC50 (nM) XG-1” value in assay [3] amounted to 50.5 nM. In addition, the koff with Human soluble IL-6R [10] and in the assay with Human soluble IL-6R [4] was 0.000242 s⁻¹ throughout. For the same molecule, the IC50 in the assay with Human soluble IL-6R [5] and in the assay with Human soluble IL-6R [7] was 1.44 nM each time. Besides, in the assay with Human soluble IL-6R [8], the “Ref Fab competition (%)” value is 80%. The “Residual reference-Fab binding to IL-6R (%)” value with Human soluble IL-6R [9] worked out at 80%. Moreover, the binding result with Mouse IL-6R is “no binding (tested: 500 nM)”.

B4: IL6R11 (VHH)
VHH: EVQLVESGGGLVQAGGSLRLSCAASGFTFDDYAIGWFRQAPGKEHEGVSCISSSDGSTYYADSVKGRFTISSDNAKNTVYLQMNSLKPEDTAVYYCAAERDVPARSLCGSYYWYDYRGQGTQVTVSS
notes: also called PMP35E11; not shown: C-terminal c-myc and (His)6 tags
B4: the “IC50 (nM), XG-1 cell proliferation” value in [1] is 5.4 nM. The “IC50 (nM), TF1 cell proliferation” value in assay [2] was 9.9 nM. Besides, the “IC50 (nM) XG-1” value in assay [3] was determined as 5.4 nM. Further, the koff with Human soluble IL-6R [10] is 0.000417 s⁻¹; with Human soluble IL-6R [4], 0.00034 s⁻¹ and 0.000396 s⁻¹ and 0.000417 s⁻¹. Besides, the Kd in the assay with Human soluble IL-6R [4] is 0.9 nM and 1.9 nM; with Human soluble IL-6R [6], 0.9 nM. Moreover, the kon with Human soluble IL-6R [4] is 391000 M⁻¹ s⁻¹ and 215000 M⁻¹ s⁻¹. Moreover, the IC50 was 0.158 nM with Human soluble IL-6R [5] and 0.16 nM in the assay with Human soluble IL-6R [7]. In the assay with Human soluble IL-6R [8], the “Ref Fab competition (%)” value turned out to be 40%. Besides, in the assay with Human soluble IL-6R [9], the “Residual reference-Fab binding to IL-6R (%)” value came out at 40%. In addition, the binding result in the assay with Mouse IL-6R is reported as “no binding (tested: 500 nM)”.

The values are drawn from patent US20120077731A1 (Ablynx, published 2012).
